The source of these data is patent publication US20180017576A1 (WESTFAELISCHE WILHELMS UNIVERSITAET MUENSTER, published 2018).

T1: recombinant human S100A9 protein, wild type (human, UniProt P06702 2-114)
T1 construct: also called recS100A9; S100A9 wt
T1 sequence: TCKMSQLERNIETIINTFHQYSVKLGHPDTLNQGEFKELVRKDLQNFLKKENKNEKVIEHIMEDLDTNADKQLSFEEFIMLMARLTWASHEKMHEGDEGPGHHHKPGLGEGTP

B1: recombinant human S100A8 protein (other)
chain: LTELEKALNSIIDVYHKYSLIKGNFHAVYRDDLKKLLETECPQYIRKKGADVWFKELDINTDGAVNFQEFLILVIKMGVAAHKKSHEESHKE
notes: also called recS100A8; MRP8
B2: recS100A8/S100A9(N69A+E78A) heterodimer (other)
chain 1: B1 chain
chain 2: T1 sequence with N68A, E77A
notes: Heterodimer of S100A8 and doubly mutated S100A9
B3: recS100A8/S100A9(E78A) heterodimer (other)
chain 1: B1 chain
chain 2: T1 sequence with E77A
notes: Heterodimer of S100A8 and mutated S100A9; also called recS100A8/S100A9(E78A) mutant complex
B4: recS100A8/S100A9(N69A) heterodimer (other)
chain 1: B1 chain
chain 2: T1 sequence with N68A
notes: Heterodimer of S100A8 and mutated S100A9; also called recS100A8/S100A9(N69A) mutant complex
B5: recS100A8/S100A9 wt heterodimer (other)
chain 1: B1 chain
chain 2: T1 sequence
notes: Heterodimer of one S100A8 and one S100A9 chain; Two such heterodimers associate to the (S100A8/S100A9)2 tetramer in the presence of calcium; also called recS100A8/S100A9 wild-type complex; wt S100A8/S100A9
B6: recombinant human S100A9(N69A) (other)
chain: T1 sequence with N68A
notes: also called N69A mutant
B7: recombinant human S100A9(E78A) (other)
chain: T1 sequence with E77A
notes: also called E78A mutant
B8: recombinant human S100A9(N69A+E78A) (other)
chain: T1 sequence with N68A, E77A
notes: also called double mutant

For data set [1], the target named is T1, recombinant human S100A9 protein, wild …. The experiment in a line: MALDI-MS, native solvent conditions, no calcium.
Data set [2] concerns the molecule itself. The experiment in a line: MALDI-MS, native solvent conditions, with calcium. An excerpt: FIG. 2: MALDI mass spectra in the absence and presence of calcium under native solvent conditions. (a) MALDI mass spectra of recS100A8/S100A9 wt complexes in the absence (left) and presence (right) of calcium using 2,6-dihydroxy-acetophenone as matrix. The mass spectra between m/z 20,000 and 100,000 together with an inset between m/z 46,000 and 50,000 are shown. T⁺, singly charged; T²⁺, doubly charged; T³⁺, triply charged tetramer. (b) MALDI mass spectra of recS100A8/S100A9(N69A) mutant complexes in the absence (left) and presence (right) of calcium.
The oligomerization properties of the recS100A8/S100A9 mutant complexes can be determined by MALDI-MS. As shown exemplarily for the N69A mutant in FIG. 2(b), all mutant S100A9 proteins display signals for singly charged heterodimers in the absence of calcium. In contrast to the results obtained with the recS100A8/S100A9 wt proteins no heterotetramers can be observed for the mutant complexes in the presence of calcium (FIG. 2). The base peaks under these conditions exclusively represent S100A8/S100A9(N69A), S100A8/S100A9(E78A) and S100A8/S100A9(N69A+E78A) heterodimers. All MALDI-MS experiments presented here were also confirmed by ESI-MS measurements (see FIG. 3).

Data set [3] concerns the molecule itself. The data set can be described thus: glycerol density gradient centrifugation, 100 uM Ca2+. Here is the method: (§1) FIG. 5: Density gradient centrifugation. wt and mutant recS100A8/S100A9 complexes were loaded on a glycerol gradient in the presence of either 1 mM EGTA or 100 μM Ca²⁺. After centrifugation, successive fractions of the gradients were analyzed by SDS-PAGE. […] Addition of calcium induced a marked shift for recS100A8/S100A9 wt to higher glycerol densities, whereas for the mutant complexes recS100A8/S100A9(N69A) and recS100A8/S100A9(E78A) no shift was observed.

Data set [4] concerns the target B1. The data set can be described thus: glycerol density gradient centrifugation, 1 mM EGTA. Here is the method:
as §1

Data set [5] deals with B1. The experiment in a line: ESI-MS, native solvent conditions.

Where a chain is given by its changes, count along the chain named. Names may count otherwise.

Take B1: in data set [1], the binding result is “binds”. With B2, in data set [2], the binding result is given as “no binding”. Still for that read-out and setting: the value for B3 was “no binding”; that for B4 was “no binding”.

For B5, the binding result in data set [3] is given as “binds”. In the case of B6, in data set [4], the binding result is reported as “binds”. Still for that read-out and setting: the value for B7 was “binds”.

For B8, the binding result in data set [5] is reported as “binds”.
